How the values were obtained:
Sp1 [1] = target: T1, Sp1 (UniProt P08047 P08047:2-785); assay: probe mixture, gel-separated complex hybridised to microarray; signal 0 at the tag-complementary spot Y-14 (Y-7t also 0); room temperature 30 min; conditions: tags: Promega recombinant; label: 5'-Cy3 on YZ-7f (microarray); partially double-stranded, 3' single-strand tag on YZ-7f
Procedure: (§1) The Sp1 protein was mixed with a group of Cy3 labeled probes (YZ-7, YZ-9 and YZ-11) at room temperature for 30 minutes and then the protein/DNA complex was separated on the polyacrylamide column using the separation method described in Example 1. The collected protein/DNA complex was concentrated, the buffer changed to 5×SSC, 0.1% SDS, and the DNA hybridized to a microarray slide containing oligonucleotide DNA sequences shown in Table 2. Small amounts of YZ-2 and YZ-4 were added (shown in Table 3 and complementary to the sequences of YZ-1 and YZ-3). These sequences, shown in Table 3, serve as a positive control and reference signal. Only the Sp1 and control probes yielded positive signals (see Table 4). […] The microarray results (shown in Table 4) was consistent with the result from the gel shift assay.

Sp1 [2] = target: T1, Sp1; assay: probe mixture, gel-separated complex hybridised to microarray; signal 0 at Y-11t; room temperature 30 min; conditions: tags: Promega recombinant; label: IRDye 700 (gel) or 5'-Cy3 on YZ-11f (microarray); partially double-stranded, 3' single-strand tag on YZ-11f
Procedure: as §1

T1 sequence (P08047 2-785, one chain of several): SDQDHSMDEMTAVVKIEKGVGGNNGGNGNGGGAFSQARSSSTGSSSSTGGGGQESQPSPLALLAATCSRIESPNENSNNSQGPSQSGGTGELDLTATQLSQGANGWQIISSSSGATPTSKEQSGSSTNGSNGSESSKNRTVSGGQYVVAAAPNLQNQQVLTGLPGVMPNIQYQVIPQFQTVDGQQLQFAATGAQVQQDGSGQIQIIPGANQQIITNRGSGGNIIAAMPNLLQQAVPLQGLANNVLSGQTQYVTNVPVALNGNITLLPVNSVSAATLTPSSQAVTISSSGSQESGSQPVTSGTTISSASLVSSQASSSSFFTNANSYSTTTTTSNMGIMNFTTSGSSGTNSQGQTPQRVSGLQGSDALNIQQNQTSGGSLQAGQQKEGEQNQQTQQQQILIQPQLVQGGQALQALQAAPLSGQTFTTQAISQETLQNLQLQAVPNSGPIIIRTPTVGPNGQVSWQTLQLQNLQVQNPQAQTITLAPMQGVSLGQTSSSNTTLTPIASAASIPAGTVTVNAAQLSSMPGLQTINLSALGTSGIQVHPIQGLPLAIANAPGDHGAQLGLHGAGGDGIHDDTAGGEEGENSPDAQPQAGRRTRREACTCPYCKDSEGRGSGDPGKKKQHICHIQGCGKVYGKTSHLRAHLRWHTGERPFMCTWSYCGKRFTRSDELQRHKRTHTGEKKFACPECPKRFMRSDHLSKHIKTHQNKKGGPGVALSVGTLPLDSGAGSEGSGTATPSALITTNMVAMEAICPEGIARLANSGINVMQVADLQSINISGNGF

B1: YZ-7 (NF-kb probe) (dsDNA)
DNA 1: TCCTAGCTTCAGAGGGGACTTTCCGAGAGGACCTGAAGAAATGGTTTTGAATCAT
DNA 2: CCTCTCGGAAAGTCCCCTCTGAAGCTAGGA
- binding result (Sp1 [1]): no binding

B2: YZ-11 (ER-alpha probe) (dsDNA)
DNA 1: CCTGCCAGGTCGCGCTGCCCTCCTTCTACCATGCCTTAGGAGAATTGTTTTGTTT
DNA 2: GGTAGAAGGAGGGCAGCGCGACCTGGCAGG
- binding result (Sp1 [2]): no binding

Source: US20110011742, “METHOD FOR THE PURIFICATION OF BIOLOGICAL MACROMOLECULES” (published 2011)
